± gives the uncertainty stated by the source.
Test: protein stability index of a GFP-peptide fusion (yeast GPS) (PSI 1-4); higher = more stable; sorted into four equal gates, so the index is relative within each strain
Procedure, shortened: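 The protein stability index of a peptide was calculated by multiplying its read frequency in each gate by that gate's number and adding the products. The peptides were tiled 17-residue stretches of yeast proteins, fused downstream of GFP on a Cherry-expressing plasmid and carried in yeast as a pooled library. Mid-log cultures in leucine-free medium were sorted into four equal gates by GFP/Cherry ratio, and each gate's plasmids were PCR-amplified and Illumina-sequenced.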

Sequence | protein stability index (doa10∆) | protein stability index (pdr5∆) | protein stability index (san1∆) | protein stability index (ubr1∆)
PQINILQPIKGESARRF [RPC40] | 2.17 ± 0.096 | 2.58 ± 0.1 | 2.43 ± 0.12 | 2.88 ± 0.12
KSFISKLLGIGDIESLF [SRP54] | 1.56 ± 0.061 | 1.82 ± 0.077 | 2.2 ± 0.12 | 2.1 ± 0.12
PIYTGDGWVKLTYKSEL [YMR153W/NUP53] | 2.24 ± 0.081 | 2.38 ± 0.09 | 2.45 ± 0.11 | 1.98 ± 0.049
SEVQRTMLELLNQLDGF [RPT6] | 2.55 ± 0.1 | 2.5 ± 0.083 | 1.86 ± 0.15 | 2.51 ± 0.07
SATFLRIVGSELIQKYL [RPT2] | 1.41 ± 0.066 | 1.46 ± 0.071 | 1.18 ± 0.13 | 1.28 ± 0.051
NLTIHFGGEKGKRIREN [FAS1] | 3.39 ± 0.1 | 3.01 ± 0.18 | 3.05 ± 0.092 | 3.31 ± 0.075
YGRKSFRNNKNDNYSSD [REC8] | 3.28 ± 0.096 | 3.22 ± 0.068 | 3.32 ± 0.05 | 3.14 ± 0.059
ITLENITRLCQTLGLES [MED1] | 2.07 ± 0.04 | 2.28 ± 0.044 | 1.91 ± 0.055 | 1.89 ± 0.037
SNDKFVHVQLLINLKIS [SRB8] | 1.51 ± 0.042 | 1.82 ± 0.045 | 1.6 ± 0.064 | 1.61 ± 0.034
NMEKEKDRIIDERTKEF [YIL149C/MLP2] | 3.11 ± 0.078 | 2.93 ± 0.11 | 3.1 ± 0.074 | 3.16 ± 0.058
VVLFNRQPSLHRLSILS [RPO31] | 1.65 ± 0.054 | 1.88 ± 0.053 | 1.44 ± 0.096 | 1.63 ± 0.047
NGKTRTLENTLKAAFVA [RPS2] | 2.85 ± 0.11 | 2.8 ± 0.14 | 3 ± 0.089 | 2.67 ± 0.085
NPMVPSSVNEDTFLPPP [PRP8] | 3.05 ± 0.058 | 3.32 ± 0.06 | 3.01 ± 0.04 | 3.1 ± 0.043
LNELSAKDKEIYNKMIG [RPN13] | 2.8 ± 0.092 | 2.65 ± 0.11 | 2.2 ± 0.11 | 2.83 ± 0.082
ESGEDEAEFSLRELSCC [RRP46] | 3.24 ± 0.05 | 3.12 ± 0.075 | 3.2 ± 0.064 | 3.16 ± 0.066
RILNFFDKNTKTTPNTA [YMR153W/NUP53] | 2.42 ± 0.051 | 2.53 ± 0.055 | 2.56 ± 0.048 | 2.43 ± 0.047
KIYINLALGSHNKLIQF [SSN2] | 2.57 ± 0.17 | 1.83 ± 0.078 | 2.13 ± 0.11 | 2.22 ± 0.071
MQKQHEMKTQAAELQEK [SNF6] | 1.79 ± 0.14 | 3 ± 0.17 | 3.05 ± 0.055 | 2.54 ± 0.063
RDLILTEYGRKYNVNIS [PRP8] | 2.2 ± 0.18 | 2.42 ± 0.098 | 3.14 ± 0.23 | 2.28 ± 0.059
ASRHGQKGTIGITYRRE [RPB2] | 2.53 ± 0.08 | 1.84 ± 0.051 | 2.39 ± 0.082 | 2.22 ± 0.051
SITTGNDNENIVNNDLP [MED2] | 2.79 ± 0.051 | 2.78 ± 0.052 | 2.57 ± 0.054 | 2.87 ± 0.05
NGTTVWGTLQSVSPQMN [SMD1] | 3.57 ± 0.25 | 3.01 ± 0.24 | 3.39 ± 0.19 | 2.96 ± 0.18
TAAYARTIGIAVDHRRQ [RPL13A] | 1.58 ± 0.077 | 1.58 ± 0.05 | 1.22 ± 0.088 | 1.77 ± 0.055
VLCNSNISKSRAKPVTN [RRP6] | 2.3 ± 0.083 | 2.67 ± 0.096 | 2.09 ± 0.11 | 2.14 ± 0.067
LKSIESLKLENSDLEGK [SMC2] | 3.07 ± 0.13 | 2.8 ± 0.099 | 3.39 ± 0.17 | 2.99 ± 0.12
NLDSSITQDGKFAYKID [YMR129W/POM152] | 2.38 ± 0.065 | 2.69 ± 0.064 | 2.26 ± 0.08 | 2.71 ± 0.05

Sequence | protein stability index (doa10∆) | protein stability index (pdr5∆) | protein stability index (san1∆) | protein stability index (ubr1∆)
TFHHHGRQTVLIKDNSA [SRB2] | 1.92 ± 0.25 | 2.52 ± 0.21 |  | 2.56 ± 0.24
SLSRDFVMKTRRRKGIS [SNU114] | 3.25 ± 0.2 | 3.31 ± 0.11 | 3.02 ± 0.074 | 2.77 ± 0.22
VEVCLADLQGSEDHSFR [RPS1A] | 3.44 ± 0.18 | 3.27 ± 0.11 | 3.21 ± 0.17 | 3.25 ± 0.19
SKKLDVTVEQLRSIYHQ [NSL1] | 2.42 ± 0.067 | 2.25 ± 0.06 | 1.85 ± 0.055 | 2.08 ± 0.057
DPNEVKYLYLRAVGGEV [RPL12A] | 1.77 ± 0.073 | 1.89 ± 0.12 | 1.98 ± 0.18 | 1.53 ± 0.039
DEMYELTDPMTVMFFYH [DIB1] | 2.69 ± 0.092 | 3.01 ± 0.11 | 2.83 ± 0.14 | 2.85 ± 0.11
LQEKISTELNNKQYELF [SWI1] | 2.51 ± 0.077 | 2.74 ± 0.072 | 2.52 ± 0.062 | 2.77 ± 0.059
ERRMQVTAEDFKQAKER [RPT2] | 3.02 ± 0.1 | 3.29 ± 0.11 | 3 ± 0.088 | 3.56 ± 0.12
LDLMFDEVYVQNSKFLK [YJL039C/NUP192] | 2.94 ± 0.066 | 2.94 ± 0.055 | 2.87 ± 0.071 | 2.87 ± 0.034
LRSDFYILANHYLSRVL [YJL039C/NUP192] | 2.81 ± 0.054 | 2.85 ± 0.07 | 2.59 ± 0.07 | 2.44 ± 0.044
FSSSVSLSYMAFPNASK [RRP40] | 1.65 ± 0.078 | 1.76 ± 0.074 | 1.65 ± 0.12 | 1.72 ± 0.072
QAQAQAQAQAQAQAQAH [GAL11] | 2.84 ± 0.071 | 3.05 ± 0.084 | 2.84 ± 0.084 | 3.1 ± 0.1
EDNNDAVNSIMALKFVS [ECM29] | 3.15 ± 0.1 | 3.3 ± 0.077 | 3.03 ± 0.079 | 3.32 ± 0.07
GKHSIGLIWYLLAREVL [RPS0A] | 1.59 ± 0.073 | 1.87 ± 0.064 | 1.65 ± 0.1 | 2.06 ± 0.054
IIDHIPGHSLLLSIKLP [SNF5] | 1.96 ± 0.066 | 1.61 ± 0.045 | 1.53 ± 0.11 | 2.23 ± 0.04
EFSEHTFVERLPNETIN [DIS3] | 3.34 ± 0.16 | 2.47 ± 0.18 | 3.36 ± 0.11 | 3.23 ± 0.12
PQEPKHIQEEEEQDVDM [RPC19] | 3.41 ± 0.09 | 3.36 ± 0.09 | 3.12 ± 0.05 | 3.28 ± 0.056
DLRIRIKLDIVVGQNQL [SNF5] | 1.38 ± 0.088 | 1.38 ± 0.086 | 1.67 ± 0.1 | 1.75 ± 0.071
LCDNFNHFSLSYKDSGL [COR1] | 2.27 ± 0.066 | 2.7 ± 0.069 | 2.73 ± 0.067 | 2.5 ± 0.066
RGAWGKPHGLAARVDIG [RPL10] | 2.59 ± 0.064 | 1.99 ± 0.04 | 1.68 ± 0.08 | 2.35 ± 0.037
FDKKSFFNGKALNNAIP [PRP8] | 2.06 ± 0.08 | 1.91 ± 0.051 | 1.98 ± 0.15 | 1.92 ± 0.052
GNDAKPAKVEDVQKSSD [YLR335W/NUP2] | 3.3 ± 0.064 | 3.2 ± 0.058 | 3.17 ± 0.052 | 3.13 ± 0.051
KKEENETISNVAKTAPN [SNF2] | 2.86 ± 0.072 | 3.03 ± 0.065 | 2.52 ± 0.1 | 2.94 ± 0.047
QNKKNLKWVAVVPDLGH [SSN2] | 2.67 ± 0.085 | 3.07 ± 0.051 | 2.81 ± 0.07 | 3.02 ± 0.1
LDRIPMHSYFIFKDLVT [COB] | 1.92 ± 0.11 | 1.91 ± 0.12 | 1.88 ± 0.12 | 1.67 ± 0.069

— the supplement of paper PMC9732359
